From patent US20190100594A1 (INHIBRX, published 2019)
Where a chain is given by its changes, count along the chain named.

T1: human GITR-CHO (human, UniProt Q9Y5U5)
T1 construct: expressed on the surface of CHO cells, construct not described; also called human GITR expressed on the surface of CHO cells
T1 sequence (looked up): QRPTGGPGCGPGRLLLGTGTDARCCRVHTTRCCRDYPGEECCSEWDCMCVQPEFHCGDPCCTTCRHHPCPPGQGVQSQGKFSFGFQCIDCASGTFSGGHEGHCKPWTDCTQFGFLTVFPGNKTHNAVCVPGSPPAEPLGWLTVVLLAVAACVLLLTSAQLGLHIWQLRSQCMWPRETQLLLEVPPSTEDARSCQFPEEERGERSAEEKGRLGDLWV

B1: hzCC04v5 (VHH)
VHH: EVQLLESGGGEVQPGGSLRLSCAASGFTFSTHGMDWFRQAPGKDLEWVSAIQSGGSWTSYASSVKGRFTISRDNAKNTLYLQMSSLRAEDTAVYWCQNRVTRGQGTLVTV
notes: also called hzC04v5
B2: hzCC04v1.2.1 (VHH)
VHH: B1 VHH with Q52N, S53Q, W95Y
notes: also called hzC04v1.2.1

Key:
cyno GITR-CHO = target: T2, cyno GITR-CHO (cynomolgus monkey); assay: flow cytometry on cyno GITR-CHO cells
T2 construct: expressed on the surface of CHO cells, construct not described; also called cynomolgus GITR expressed on the surface of CHO cells

human GITR-CHO = target: T1, human GITR-CHO; assay: flow cytometry on human GITR-CHO cells

Binder | EC50 (read off the curve) (cyno GITR-CHO) [nM] | EC50 (read off the curve) (human GITR-CHO) [nM]
B1 | ~2 | ~3
B2 | ~2 | ~2
